Experimental data published in paper PMC8084935.

Target: FITC-labeled McrA peptide (GG-…) (Methanothermobacter sp. CaT2)
Experiment: fluorescence polarisation

Which Kd does the source give for “MtYcaO (YcaO from Methanothermobacter sp. CaT2), MBP-His tag cut in the assay mixture (enzyme)” here?
The Kd was 7 µM.
